The values that follow come from article PMC9549855.

The target of this assay is T1, nucleocapsid protein (N) (vesicular stomatitis virus), P03521.
T1 chain: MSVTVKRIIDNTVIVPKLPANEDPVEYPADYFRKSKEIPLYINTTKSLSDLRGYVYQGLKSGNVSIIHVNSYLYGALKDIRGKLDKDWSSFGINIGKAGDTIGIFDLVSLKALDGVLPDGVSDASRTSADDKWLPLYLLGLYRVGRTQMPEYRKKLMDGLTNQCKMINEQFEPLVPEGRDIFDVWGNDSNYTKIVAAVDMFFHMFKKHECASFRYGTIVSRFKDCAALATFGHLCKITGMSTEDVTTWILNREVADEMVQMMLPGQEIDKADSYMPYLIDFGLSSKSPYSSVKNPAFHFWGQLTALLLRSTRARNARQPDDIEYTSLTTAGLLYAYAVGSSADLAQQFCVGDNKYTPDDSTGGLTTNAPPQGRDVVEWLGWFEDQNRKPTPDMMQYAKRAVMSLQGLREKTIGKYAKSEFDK
In words: cryo-EM structure. As to conditions: remark: other sources report otherwise.

B1: matrix protein (M), P03519 1-229 (natural protein)
chain: MSSLKKILGLKGKGKKSKKLGIAPPPYEEDTSMEYAPSAPIDKSYFGVDEMDTYDPNQLRYEKFFFTVKMTVRSNRPFRTYSDVAAAVSHWDHMYIGMAGKRPFYKILAFLGSSNLKATPAVLADQGQPEYHTHCEGRAYLPHRMGKTPPMLNVPEHFRRPFNIGLYKGTIELTMTIYDDESLEAAPMIWDHFNSSKFSDFREKALMFGLIVEKKASGAWVLDSISHFK
Consider B1, for which the stoichiometry N (commonly the number of molecules, sites or subunits per partner or assembly) amounted to 2.
